Test results taken from patent US20050239141A1.

T1: rat CD5 antigen present on rat T cells (rat) (UniProt P51882)
T1 sequence (looked up): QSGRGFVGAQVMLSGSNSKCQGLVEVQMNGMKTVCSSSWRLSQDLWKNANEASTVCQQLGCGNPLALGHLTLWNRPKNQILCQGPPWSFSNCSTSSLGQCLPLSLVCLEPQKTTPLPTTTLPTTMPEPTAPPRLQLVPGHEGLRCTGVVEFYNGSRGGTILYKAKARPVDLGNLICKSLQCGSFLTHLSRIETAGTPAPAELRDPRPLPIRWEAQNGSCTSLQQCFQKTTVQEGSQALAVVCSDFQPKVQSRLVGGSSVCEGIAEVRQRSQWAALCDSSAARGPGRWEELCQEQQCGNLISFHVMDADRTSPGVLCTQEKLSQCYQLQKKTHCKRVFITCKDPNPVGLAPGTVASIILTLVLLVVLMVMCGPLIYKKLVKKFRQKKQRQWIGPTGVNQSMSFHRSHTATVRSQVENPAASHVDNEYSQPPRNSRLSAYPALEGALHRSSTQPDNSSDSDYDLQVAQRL

B1: MoAb H65 (antibody, V domains shown)
VH: QIQLVQSGPELKKPGETVKISCKASGYTFTNYGMNWVKQAPGKGLRWMGWINTHTGEPTYADDFKGRFAFSLETSASTAYLQINNLKNEDTATYFCTRRGYDWYFDVWGAGTTVTVSS
VL: DIKMTQSPSSMYASLGERVTITCKASQDINSYLSWFQQKPGKSPKTLIYRANRLVDGVPSRFSGSGSGQDYSLTISSLDYEDMGIYYCQQYDESPWTFGGGTKLEIK

Tests used:
[1] = target: T1, rat CD5 antigen present on rat T cells (rat); experiment: flow cytometry, blood T cells of a rat 3 h after 0.5 mg/kg i.v.
[2] = target: T1, rat CD5 antigen present on rat T cells (rat); experiment: flow cytometry, spleen T cells of a rat 3 h after 0.5 mg/kg i.v.
[3] = target: T1, rat CD5 antigen present on rat T cells (rat); experiment: flow cytometry, lymph node T cells of a rat 3 h after 0.5 mg/kg i.v.
[4] = target: T1, rat CD5 antigen present on rat T cells (rat); experiment: flow cytometry, blood T cells of a rat 3 h after 0.5 mg/kg i.v. (isotype matched negative control)
[5] = target: T1, rat CD5 antigen present on rat T cells (rat); experiment: flow cytometry, spleen T cells of a rat 3 h after 0.5 mg/kg i.v. (isotype matched negative control)
[6] = target: T1, rat CD5 antigen present on rat T cells (rat); experiment: flow cytometry, lymph node T cells of a rat 3 h after 0.5 mg/kg i.v. (isotype matched negative control)

Molecule	% of CD4 cells also positive for mouse IgG1 [1] [%]	% of CD8 cells also positive for mouse IgG1 [1] [%]	% of CD4 cells also positive for mouse IgG1 [2] [%]	% of CD8 cells also positive for mouse IgG1 [2] [%]	% of CD4 cells also positive for mouse IgG1 [3] [%]	% of CD8 cells also positive for mouse IgG1 [3] [%]	% of CD4 cells also positive for mouse IgG1 [4] [%]	% of CD8 cells also positive for mouse IgG1 [4] [%]	% of CD4 cells also positive for mouse IgG1 [5] [%]	% of CD8 cells also positive for mouse IgG1 [5] [%]	% of CD4 cells also positive for mouse IgG1 [6] [%]	% of CD8 cells also positive for mouse IgG1 [6] [%]
OX19 MoAb (antibody)	96.2	70.2	84.8	73.6	96.2	96.8	–	–	–	–	–	–
B1	–	–	–	–	–	–	6.7	5.7	14.8	20.6	4.2	6.5
